From patent publication US20210268073A1, “METHODS OF REDUCING POLYSORBATE DEGRADATION IN DRUG FORMULATIONS” (Regeneron Pharmaceuticals, Inc., priority 2020, published 2021)

Conditions: pH 6

B1: human liver carboxylesterase 1: commercial human liver carboxylesterase 1 purchased from Abcam, SEQ ID NO: 12 (protein, listed as Homo sapiens)
chain: MWLRAFILATLSASAAWGHPSSPPVVDTVHGKVLGKFVSLEGFAQPVAIFLGIPFAKKPLGPLRFTPPQPAEPWSFVKNATSYPPMCTQDPKAGQLLSELFTNRKENIPLKLSEDCLYLNIYTPADLTKKNRLPVMVWIHGGGLMVGAASTYDGLALAAHENVVVVTIQYRLGIWGFFSTGDEHSRGNWGHLDQVAALRWVQDNIASFGGNPGSVTIFGESAGGESVSVLVLSPLAKNLFHRAISESGVALTSVLVKKGDVKPLAEQIAITAGCKTTTSAVMVHCLRQKTEEELLETTLKMKFLSLDLQGDPRESQPLLGTVIDGMLLLKTPEELQAERNFHTVPYMVGINKQEFGWLIPMQLMSYPLSEGQLDQKTAMSLLWKSYPLVCIAKELIPEATEKYLGGTDDTVKKKDLFLDLIADVMFGVPSVIVARNHRDAGAPTYMYEFQYRPSFSSDMKPKTVIGDHGDELFSVFGAPFLKEGASEEEIRLSKMVMKFWANFARNGNPNGEGLPHWPEYNQKEGYLQIGANTQAAQKLKDKEVAFWTNLFAKKAVEKPPQTEHIEL
- PS80 degradation pattern compared with mAb-1: equivalent degradation pattern
